# Literature values, collected in paper PMC3046808.
# Target: Gag (Human immunodeficiency virus 1) (UniProt O93182)
# Chain of Gag (O93182 2-500): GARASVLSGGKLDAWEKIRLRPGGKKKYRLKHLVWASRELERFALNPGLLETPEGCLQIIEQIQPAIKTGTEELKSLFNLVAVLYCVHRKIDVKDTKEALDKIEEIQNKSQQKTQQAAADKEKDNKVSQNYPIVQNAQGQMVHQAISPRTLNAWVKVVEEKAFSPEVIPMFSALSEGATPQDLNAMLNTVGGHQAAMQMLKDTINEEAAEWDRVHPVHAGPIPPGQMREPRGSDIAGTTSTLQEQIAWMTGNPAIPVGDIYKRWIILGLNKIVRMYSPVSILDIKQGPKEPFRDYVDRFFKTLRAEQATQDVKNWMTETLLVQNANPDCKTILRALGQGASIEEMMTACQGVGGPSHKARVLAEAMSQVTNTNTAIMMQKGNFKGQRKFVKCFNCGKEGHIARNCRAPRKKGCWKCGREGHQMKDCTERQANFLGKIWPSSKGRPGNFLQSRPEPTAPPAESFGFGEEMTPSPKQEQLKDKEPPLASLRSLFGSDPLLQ
substance,measurement,value
Gag (from UniProt O93182),Kd,3.9 µM
